# Laboratory results as given in patent US20180355043A1.
# Experiments:
# Assay in all cases: MSD ECL; antigen coated; protocol of Example 3
# [1] = molecular target: DR4G103: Human HLA-DRA1*01:02/DRB1*15:01 ECD with hemagglutinin peptide HA_304-318 (human)
# [2] = molecular target: DR4G104: Human HLA-DRA1*01:02/DRB1*04:02 ECD with hemagglutinin peptide HA_304-318 (human)
# [3] = molecular target: DR4G119: Human HLA-DRA1*01:02/DRB1*10:01 ECD with hemagglutinin peptide HA_304-318 (human)
substance,measurement,setting,value
Isotype control (antibody),ECL signal,[1],487 ECL
same,ECL signal,[2],1130 ECL
same,ECL signal,[3],517 ECL
